# Measured values as given in patent publication US20240026407A1, “MODIFICATION OF SAPONINS” (GLAXOSMITHKLINE BIOLOGICALS SA, priority 2020, published 2024).
# Experiments:
# Type in all cases: biochemical, Quillaja saponaria
# [1] = Experiment 6-1: screening of rhamnosidases for derhamnosylation of saponins in treated bark extract (2%), QS-17 2296 to QS-18 2150 (PAR %); conditions: TBE 2%, pH 7.5, 30 degC, 18 h; TIC peak area ratio percent of rhamnosylated starting saponin to derhamnosylated product, LCMS/MS; negative controls 4.876, 5.225
# [2] = Experiment 6-2: screening of rhamnosidases for derhamnosylation of saponins in treated bark extract (25%), relative % of Left, Middle and Right Peak by UV HPLC; conditions: TBE 25%, pH 7.4, 19.5 h
# [3] = Experiment 6-1: specificity of rhamnosidases towards other rhamnose residues (C3 saccharide rhamnose, C28 saccharide rhamnose); conditions: TBE 2%, pH 7.5, 30 degC, 18 h; LCMS/MS; negative controls 0.18, 0.17
# [4] = Experiment 6-1: screening of rhamnosidases for derhamnosylation of saponins in treated bark extract (2%), QS-17 2310 to QS-18 2164 (PAR %); conditions: TBE 2%, pH 7.5, 30 degC, 18 h; TIC peak area ratio percent, LCMS/MS; negative controls 3.061, 2.429
# [5] = Experiment 6-3: screening of rhamnosidases for derhamnosylation of saponins in crude bark extract (80%), relative % of Left, Middle and Right Peak by UV HPLC; conditions: CBE 80%, pH 7.4, 30 degC, 19.5 h
# Protocol: Selected variants were expressed and lysed as in the method of experiment 6-1.
# Crude bark extract (CBE) solution was adjusted to pH 7.4 by addition of NaOH (2M). 20 uL clarified lysate was transferred into fresh 96 well PCR plates. 80 uL CBE solution (pH 7.4) was added to each well of lysate to a final concentration of 80%. Plates were incubated at 30 degC with shaking for 19.5 h.
# Quenched with 100 uL MeCN+2% AcOH and shaken at room temperature for 10 mins prior to centrifugation (10 min, 4 degC) to remove particulates. Samples were analysed by UV HPLC using method of Experiment 4-4.
# Three key peaks of interest are apparent using this chromatography: Left Peak (retention time approximately 2.30-2.35 min) comprising mainly QS-17 family components; Middle Peak (retention time approximately 2.37-2.42 min) comprising mainly QS-18 family components and desglucosyl-QS-17 family components; and Right Peak (retention time approximately 2.44-2.50 min) comprising mainly QS-21 family components. Peak identity was supported by MS/MS.
# Enzyme mediated hydrolysis of the alpha-O-rhamnosylation at the C2 position of the arabinofuranose moiety of QS-17 family components leads to a decrease in Left Peak and an increase in Middle Peak due to formation of QS-18 family components. Enzyme mediated hydrolysis of the alpha-O-rhamnosylation at the C2 position of the arabinofuranose moiety of desglucosyl-QS-17 family components leads to a decrease in Middle Peak and an increase in Right Peak due to formation of QS-21 family components.
# The relative percentage of each peak was determined. A decrease in Left Peak and a concomitant increase in Middle Peak and Right Peak is observed for enzymes active under these conditions.
# [6] = Experiment 6-1: screening of rhamnosidases for derhamnosylation of saponins in treated bark extract (2%), desglucosyl-QS-17 2134 to QS-21 1988 (PAR %); conditions: TBE 2%, pH 7.5, 30 degC, 18 h; TIC peak area ratio percent, LCMS/MS; negative controls 2.719, 2.158
# [7] = mainly QS-21 family, negative control 26%
molecule,measurement,setting,value
"1055 (protein, alpha proteobacterium) MRKAMILLTACLLSGTSALAADTLRDGFQTPPDSAKPRVWWHWLGNNVTADGIDKDLAWMRRVGIGGFQLFSGNLETPLLVDKPVVVFSPEWRAMVRHAAERADALGLEMTMAASAGWSETGGPWVKPEQAMKKLVWSETVITGAKRFQGRLPSPPTGNGPFQDMPMPPELRLPPPPPVPGARPRPPAAAHGPSPSYYADVAVVAYRLPDAVVPLGSLKPRISSSAGDAAILSDGRYDAPLRLEQKTPDGQLAWVEYTFDKPVSLPAVTLAATIEDPLNALSPSGVVEVADENGTFRDLVRVAPQEPVAFPAAAPVRTVALPEASSRRWRFRLDPIPPQALALPGMPQQTVHAVTELRFETEAMVDRWQAKAAYDTMRSYDTGPQPVRPVPARDQVVNLTARIGADGTLDWTPPPGRWQVLRIGYSLTGAKNHPADPEGTGFEVDKLDAAAVRAYLEGYLGPIDQALGDLRGAKGLKNLLTDSWEAGQANWTPALPAEFKRRRGYDLTPWLPVLTGRVVGSAADSERFLWDFRRTIADLLAEAHYKTIRDFAHEKGLGYYGEAMGTRLPTTGDGLLNKRYTDIPMGEFWQMPPGAPSDPAHTSDIAEAASAAHFYGQNLVAAEAFTALPFMPPFTATPAALKPFADRFLARGVNRFVIHTSVHQPSDDLRPGITLGPFGQYFTRHETWAEQAGAWMSYLSRSSYLQQQGRHVADIAWFVGEGGAISAPDPDRLSPALPKGYRLDFVARDAVTELLSVKDGHLLAPSGVVYRLLVVPPDARSGDLKLSLAVLRRLRDLLNQGAAVLAPRPTGSTSLSDDPAQVAALIGELWGVDTPIPRSIGKGRLYPAPDIAAALADRGVAPDLTMAGAMDADIVWSHRRTDDADIWFVANQKDRAESVTLSLRGDGRDVSLWHADSGAVEPAPFRQEAGRTSVPLTLSPNQAIFIVQRGSAPATARDVATPVEAESLALSGVWTLFFPKGQAMPDSVPLPKLGLWNDMSDPAVRHFSGTATYATEVKLPAAWAGKPVWIDLGAVHEVATVRVNGTEAGIAWKQPYRIDVGPLLKAGTNKLEVAVSNLWPNRIVGDAGGAGGVRVTTNTHPLLHPDTKARLLPSGLAGPVRLVRMELPGGNG",QS-17 (PAR %),[1],0.019%
same,Left Peak,"[2]; mainly QS-17 family, negative control 24%",7%
same,Middle Peak,"[2]; mainly QS-18 and desglucosyl-QS-17 family, negative control 50%",62%
same,Right Peak,[2]; [7],31%
same,ratio PP/QS-21,[3],0.19
same,Peak57 (PAR %),[4],0.000%
same,Left Peak,"[5]; mainly QS-17 family, negative control 27%",25%
same,Middle Peak,"[5]; mainly QS-18 and desglucosyl-QS-17 family, negative control 48%",48%
same,Right Peak,[5]; [7],27%
same,Peak75 (PAR %),[6],0.000%
